Literature values, collected in article PMC4327442.

Target: IL-18 (Homo sapiens) (UniProt Q14116)
Sequence (Q14116 37-193): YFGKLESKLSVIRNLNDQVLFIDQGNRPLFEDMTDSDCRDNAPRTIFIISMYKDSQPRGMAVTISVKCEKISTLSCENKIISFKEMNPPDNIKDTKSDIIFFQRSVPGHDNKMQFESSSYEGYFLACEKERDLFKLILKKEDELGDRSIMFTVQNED

Chain of IL-18BP (O95998 31-194): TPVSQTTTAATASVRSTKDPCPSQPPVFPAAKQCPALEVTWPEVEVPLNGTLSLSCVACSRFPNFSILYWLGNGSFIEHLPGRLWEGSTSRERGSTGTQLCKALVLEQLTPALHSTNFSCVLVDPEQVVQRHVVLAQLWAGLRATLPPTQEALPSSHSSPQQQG

## IL-18BP (from UniProt O95998)
  Kd: 0.399 nM
